Data set [1] relates to Rhino mouse skin. The data set can be described thus: Transepidermal water loss (TEWL), evaporimeter on dorsal skin. It counts as in vivo. As to conditions: for TEWL: topical once daily for five days. From the text:
Rhino mice of Example 1 were topically treated with the trypsin compositions (0.001% (w/v)-1% (w/v)) of Example 2 once daily for five days. Animals were sacrificed at day 8 and image analysis was used to quantify the reduction in utriculi size. For image analysis, whole mount epidermis was processed and microscopic measurements were taken according to the methods described in Mezick as well as Bernerd et al., “The Rhino Mouse Model: The Effects of Topically Applied All-Trans Retinoic Acid and CD271 on the Fine Structure of the Epidermis and Urticuli Wall of Pseudocomedones,” 283(2) Arch. Dermatol. Res. 100-107 (1991) and Bouclier et al., “Quantification of Epidermal Histological Changes Induced by Topical Retinoids and CD271 in the Rhino Mouse Model Using a Standardizing Image Analysis Technique,” 4(2) Skin Pharmacol. 65-73 (1991) which are each incorporated herein by reference in their entirety. Empire Imagins Database version 1.1 was used on a Gateway 2000 P5-100 computer for capturing images. Image Pro Plus version 1.3 was used for measurements and Microsoft Excel version 5.0 for data processing. The mean utriculus diameter (μ) and the mean sebaceous gland size (μ^2) were calculated for each treatment group (3 Rhino mice), using 5 random fields, two measurements per field, per animal. Percent reduction in utriculi diameter was calculated in accordance with the methods described in Finley, D. J., “Parallel Line Assays, Statistical Method in Biological Assay,” Charles Griffen & Company Ltd. 69-104 (1978) which is incorporated herein by reference in its entirety.
To further characterize the effect of trypsin on the Rhino mouse skin, we measured the transepidermal water loss (“TEWL”) using an “Evaporimeter EPI” evaporimeter available from Servomed AB by first normalizing the evaporimeter with the ambient humidity and then placing the probe on the dorsal skin of the test subject at which point a reading of TEWL was taken.

Data set [2] concerns hamster ear sebaceous gland. The experiment in a line: Hamster ear model, sebaceous gland size. The data set is classed as in vivo, golden Syrian hamsters. The procedure:
The possible effect of trypsin on the sebaceous component of acne was evaluated using the hamster ear model system. Young golden Syrian hamsters, 45-55 grams upon arrival, were purchased from Charles River Laboratories (Wilmington, Mass.). The ventral side of the hamsters' right ears were treated daily with 10 μl of the trypsin composition of Example 2, five days a week for three weeks, while the left ears were used as untreated controls.

Data set [3] deals with Elastin mRNA. The data set can be described thus: RT-PCR gene expression in skin, elastin. It counts as in vivo, Rhino mouse. The note with it: increasing concentrations of trypsin (0.0001-0.01% (w/v)) daily for five days. On the procedure: Rhino mice of Example 1 were treated daily with trypsin compositions (0% (w/v), 0.0001% (w/v), 0.001% (w/v), and 0.01% (w/v)), as prepared in Example 2, for five days and sacrificed at day eight. The skins of vehicle treated mice and trypsin-treated mice were obtained as described in Example 3, then their total RNAs were extracted using “RNA Stat-60” reagent available from Tel-Test “B,” Inc. as described in Chomczymski, “Single Step Method of RNA Isolation By Acid Guanidinium Thiocyanate-phenol-chloroform extraction,” 162 Anal. Biochem. 156-59 (1987) which is incorporated herein by reference in its entirety. A sufficient amount of RNase-free DNase available from Promega, Corp. under the tradename “RQ1 RNase-free DNase” was then added to the extracted RNA from each mouse such that each respective product contained 200 ng of DNased-RNA using the procedure set forth in “RNase-free DNase” protocol published by Promega, Corp. (May, 1995). […]
The PCR products were then analyzed on 2% agarose/ethidium bromide gels according to methods well-known in the art in order to compare the level of expression of certain genes in skins of trypsin-treated and untreated mice. […]

B1: trypsin (protein, UniProt P00760 24-246, looked up)
Serine protease 1: IVGGYTCGANTVPYQVSLNSGYHFCGGSLINSQWVVSAAHCYKSGIQVRLGEDNINVVEGNEQFISASKSIVHPSYNSNTLNNDIMLIKLKSAASLNSRVASISLPTSCASAGTQCLISGWGNTKSSGTSYPDVLKCLKAPILSDSSCKSAYPGQITSNMFCAGYLEGGKDSCQGDSGGPVVCSGKLQGIVSWGSGCAQKNKPGVYTKVCNYVSWIKQTIASN
notes: lyophilyzed trypsin from Sigma-Aldrich, a serine protease, in Hepes buffer mixed with GDL liposomes
Take B1: the TEWL in data set [1] (Trypsin 0.001% (w/v)) is reported as 29.53 ± 3.68 g/m^2h; in data set [1] (Trypsin 0.005% (w/v)), 26.40 ± 1.77 g/m^2h; in data set [1] (Trypsin 0.01% (w/v)) it was 28.53 ± 2.18 g/m^2h; in data set [1] (Trypsin 0.05% (w/v)), 36.57 ± 2.07 g/m^2h; in data set [1] (Trypsin 0.1% (w/v)), 42.80 ± 4.33 g/m^2h; in data set [1] (Trypsin 0.5% (w/v)), 36.23 ± 1.24 g/m^2h. In data set [1] (Trypsin 1.0% (w/v)), the TEWL was 42.00 ± 1.14 g/m^2h. Moreover, in data set [1] (once daily for five days), the “trypsin concentration at which TEWL increase reached a plateau” value is listed as ~0.05 % (w/v). Also, the “TEWL compared with retinoid treatment given alone” value in data set [1] (trypsin treated mice) is on record as “lower than that for retinoid treatment given alone”. Besides, in data set [2] (Trypsin 0.5% (w/v), 10 μl daily on ventral right ear, five days a week for three weeks), the “Sebaceous Gland Size” value is reported as 95043.0 ± 4269.1 μ^2. Moreover, the “Percent Size Decrease (%) of sebaceous gland” value in data set [2] (Trypsin 0.5% (w/v), vs. liposome vehicle) was −0.36 (vs. liposome %. Also, the “effect on the size of the sebaceous gland” value in data set [2] (hamster ear, daily, five days a week for three weeks) is on record as “no effect”. Further, the “Elastin mRNA” value in data set [3] is reported as “increased”.
